Reference: patent US20140087995A1 (published 2014)
Numbered stars: 1 amine (or outer) side, 2 acyl side, 3 side chain; on linkers, the order of the positions; unused ones are H or OH. Bridge positions count the residues as written; N and C are the ends. Side chains are listed from the residue outwards. Ends that are not written are not given here. * marks the point of attachment. C20 diacid = O=C(O)CCCCCCCCCCCCCCCCCCC(=O)*; γGlu = O=C(O)[C@H](CCC(=O)[*:2])N[*:1]; AEEA = NCCOCCOCC(=O)O

How the values were obtained:
[1] = molecular target: T1, human amylin receptor (human calcitonin receptor co-expressed with RAMP-3; amylin 3(a) receptor) (human, UniProt P30988 25-474; O60896 24-148, limits assumed); assay: ratio of hCTR binding IC50 to hAmylin-R binding IC50 (reference: human calcitonin receptor)
T1 construct: whole, on cells; Used as cell membranes prepared from Amylin 3(a)/CRE-luc BHK cells (Assay V), not as intact cells; also called hAmylin-R; hAmylinR
T1 sequence (looked up) 1: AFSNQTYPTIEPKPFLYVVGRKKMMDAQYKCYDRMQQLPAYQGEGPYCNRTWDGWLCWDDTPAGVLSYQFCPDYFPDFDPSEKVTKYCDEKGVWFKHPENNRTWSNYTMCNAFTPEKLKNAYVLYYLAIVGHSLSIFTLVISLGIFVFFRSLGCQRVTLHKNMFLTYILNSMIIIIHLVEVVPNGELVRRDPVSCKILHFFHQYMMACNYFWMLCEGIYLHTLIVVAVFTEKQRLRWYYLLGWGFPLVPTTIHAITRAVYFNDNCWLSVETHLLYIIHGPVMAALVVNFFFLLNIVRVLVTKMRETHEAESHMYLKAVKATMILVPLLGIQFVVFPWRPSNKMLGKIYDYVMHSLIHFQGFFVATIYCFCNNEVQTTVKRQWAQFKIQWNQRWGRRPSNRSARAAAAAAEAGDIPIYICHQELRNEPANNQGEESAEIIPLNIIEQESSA
T1 sequence (looked up) 2: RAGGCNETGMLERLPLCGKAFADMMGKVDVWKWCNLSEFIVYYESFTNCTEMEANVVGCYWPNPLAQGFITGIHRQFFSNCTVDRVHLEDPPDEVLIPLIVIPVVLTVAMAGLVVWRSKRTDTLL
Method: The resulting pellet was resuspended, homogenized and centrifuged (20.000 rpm, 15 min) in a buffer containing 20 mM Na-HEPES and 0.1 mM EDTA (pH 7.4, buffer 2). The resulting pellet was resuspended in buffer 2 and protein concentration was measured (BCA protein Assay, Pierce). The homogenate was kept cold during the whole procedure. The membranes were kept at −80° C. until use. The assay was performed in a 384 well Optiplate (PerkinElmer) in a total volume of 40 ul. Membranes were mixed with SPA beads. Final concentration of membranes 35 ng/μL final and SPA beads was 0.05 mg/well. Test-compounds were dissolved in DMSO and further diluted in assay buffer (50 mM Hepes, pH 7.4, 1 mM CaCl2, 5 mM MgCl₂, 0.1% OA and 0.02% Tween20). […] The final mixture was incubated with shaking at 400 rpm for 120 min at 25° C. prior to centrifugation (1500 rpm, 10 min). Samples were analyzed on TopCounter™ (Packard). The IC₅₀ was calculated using (one site binding competition analysis) GraphPad Prism5 as a measure of receptor affinity.
Membranes were prepared in the following way; the cells were rinsed with PBS and incubated with Versene for approximately 5 min before harvesting. The cells were flushed with PBS and the cell-suspension was centrifuged for 5 min at 1000 rpm. Cells were homogenized (Ultrathurrax) in a buffer containing 20 mM Na-HEPES and 10 mM EDTA (pH 7.4) and centrifuged at 20.000 rpm for 15 min. The resulting pellet was resuspended, homogenized and centrifuged (20.000 rpm, 15 min) in a buffer containing 20 mM Na-HEPES and 0.1 mM EDTA (pH 7.4, buffer 2). The resulting pellet was resuspended in buffer 2 and protein concentration was measured (BCA protein Assay, Pierce). The homogenate was kept cold during the whole procedure. The membranes were kept at −80° C. until use. Assay was performed in a 384 well Optiplate (PerkinElmer) in a total volume of 40 ul. Membranes were mixed with SPA beads.

[2] = molecular target: T2, human calcitonin receptor (human, UniProt P30988 25-474); assay: SPA competition against 125I-calcitonin, membranes with human calcitonin receptor (Assay VII)
T2 construct: whole, on cells; Used as cell membranes prepared from the transfected BHK cells (Assay VII), not as intact cells; also called hCTR; hCT
T2 sequence (looked up): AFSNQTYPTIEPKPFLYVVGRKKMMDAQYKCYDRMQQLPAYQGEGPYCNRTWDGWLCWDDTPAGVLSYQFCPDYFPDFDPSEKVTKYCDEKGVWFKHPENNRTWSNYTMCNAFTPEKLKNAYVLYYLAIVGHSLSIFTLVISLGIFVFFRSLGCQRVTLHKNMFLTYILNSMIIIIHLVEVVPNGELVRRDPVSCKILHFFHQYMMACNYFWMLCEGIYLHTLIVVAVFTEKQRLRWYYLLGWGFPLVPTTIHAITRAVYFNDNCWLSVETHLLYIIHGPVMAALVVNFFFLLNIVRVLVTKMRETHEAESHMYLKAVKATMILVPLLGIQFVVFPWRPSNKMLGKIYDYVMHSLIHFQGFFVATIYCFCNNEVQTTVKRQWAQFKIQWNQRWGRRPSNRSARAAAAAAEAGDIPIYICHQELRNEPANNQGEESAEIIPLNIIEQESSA
Summary of the method: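 BHK hCTR membranes 35 ng/μL + SPA beads 0.05 mg/well; buffer 50 mM Hepes pH 7.4, 1 mM CaCl2, 5 mM MgCl₂, 0.1% OA, 0.02% Tween20. 120 min, 25° C., shaking. Scintillation count; IC50 by one-site binding competition.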

Binder | Ratio hCT/hAmylin binding [1] | IC50 [2] [nM]
K([AEEA-γGlu-C20 diacid])CNTATCATQRLANFLRHSSPNFGAIPSSTPVGSHTY-NH2 (disulfide 2-7; N-terminus assumed; SMILES CC[C@H](C)[C@H](NC(=O)[C@H](C)NC(=O)CNC(=O)[C@H](Cc1ccccc1)NC(=O)[C@H](CC(N)=O)NC(=O)[C@@H]1CCCN1C(=O)[C@H](CO)NC(=O)[C@H](CO)NC(=O)[C@H](Cc1c[nH]cn1)NC(=O)[C@H](CCCNC(=N)N)NC(=O)[C@H](CC(C)C)NC(=O)[C@H](Cc1ccccc1)NC(=O)[C@H](CC(N)=O)NC(=O)[C@H](C)NC(=O)[C@H](CC(C)C)NC(=O)[C@H](CCCNC(=N)N)NC(=O)[C@H](CCC(N)=O)NC(=O)[C@@H](NC(=O)[C@H](C)NC(=O)[C@@H]1CSSC[C@H](NC(=O)[C@@H](N)CCCCNC(=O)COCCOCCNC(=O)CC[C@H](NC(=O)CCCCCCCCCCCCCCCCCCC(=O)O)C(=O)O)C(=O)N[C@@H](CC(N)=O)C(=O)N[C@@H]([C@@H](C)O)C(=O)N[C@@H](C)C(=O)N[C@@H]([C@@H](C)O)C(=O)N1)[C@@H](C)O)C(=O)N1CCC[C@H]1C(=O)N[C@@H](CO)C(=O)N[C@@H](CO)C(=O)N[C@H](C(=O)N1CCC[C@H]1C(=O)N[C@H](C(=O)NCC(=O)N[C@@H](CO)C(=O)N[C@@H](Cc1c[nH]cn1)C(=O)N[C@H](C(=O)N[C@@H](Cc1ccc(O)cc1)C(N)=O)[C@@H](C)O)C(C)C)[C@@H](C)O, also called compound 57) | 133 | 15.3
K([AEEA-γGlu-C20 diacid])CNTATCATQRLANFLRHSSPNFGAIPSSTNVGPNTY-NH2 (disulfide 2-7; N-terminus assumed; SMILES CC[C@H](C)[C@H](NC(=O)[C@H](C)NC(=O)CNC(=O)[C@H](Cc1ccccc1)NC(=O)[C@H](CC(N)=O)NC(=O)[C@@H]1CCCN1C(=O)[C@H](CO)NC(=O)[C@H](CO)NC(=O)[C@H](Cc1c[nH]cn1)NC(=O)[C@H](CCCNC(=N)N)NC(=O)[C@H](CC(C)C)NC(=O)[C@H](Cc1ccccc1)NC(=O)[C@H](CC(N)=O)NC(=O)[C@H](C)NC(=O)[C@H](CC(C)C)NC(=O)[C@H](CCCNC(=N)N)NC(=O)[C@H](CCC(N)=O)NC(=O)[C@@H](NC(=O)[C@H](C)NC(=O)[C@@H]1CSSC[C@H](NC(=O)[C@@H](N)CCCCNC(=O)COCCOCCNC(=O)CC[C@H](NC(=O)CCCCCCCCCCCCCCCCCCC(=O)O)C(=O)O)C(=O)N[C@@H](CC(N)=O)C(=O)N[C@@H]([C@@H](C)O)C(=O)N[C@@H](C)C(=O)N[C@@H]([C@@H](C)O)C(=O)N1)[C@@H](C)O)C(=O)N1CCC[C@H]1C(=O)N[C@@H](CO)C(=O)N[C@@H](CO)C(=O)N[C@H](C(=O)N[C@@H](CC(N)=O)C(=O)N[C@H](C(=O)NCC(=O)N1CCC[C@H]1C(=O)N[C@@H](CC(N)=O)C(=O)N[C@H](C(=O)N[C@@H](Cc1ccc(O)cc1)C(N)=O)[C@@H](C)O)C(C)C)[C@@H](C)O, also called compound 50) | 36 | 1.38
K([AEEA-γGlu-C20 diacid])CNTATCATQRLAHFLRHSSPNFGAIPSSTPVGSNTY-NH2 (disulfide 2-7; N-terminus assumed; SMILES CC[C@H](C)[C@H](NC(=O)[C@H](C)NC(=O)CNC(=O)[C@H](Cc1ccccc1)NC(=O)[C@H](CC(N)=O)NC(=O)[C@@H]1CCCN1C(=O)[C@H](CO)NC(=O)[C@H](CO)NC(=O)[C@H](Cc1c[nH]cn1)NC(=O)[C@H](CCCNC(=N)N)NC(=O)[C@H](CC(C)C)NC(=O)[C@H](Cc1ccccc1)NC(=O)[C@H](Cc1c[nH]cn1)NC(=O)[C@H](C)NC(=O)[C@H](CC(C)C)NC(=O)[C@H](CCCNC(=N)N)NC(=O)[C@H](CCC(N)=O)NC(=O)[C@@H](NC(=O)[C@H](C)NC(=O)[C@@H]1CSSC[C@H](NC(=O)[C@@H](N)CCCCNC(=O)COCCOCCNC(=O)CC[C@H](NC(=O)CCCCCCCCCCCCCCCCCCC(=O)O)C(=O)O)C(=O)N[C@@H](CC(N)=O)C(=O)N[C@@H]([C@@H](C)O)C(=O)N[C@@H](C)C(=O)N[C@@H]([C@@H](C)O)C(=O)N1)[C@@H](C)O)C(=O)N1CCC[C@H]1C(=O)N[C@@H](CO)C(=O)N[C@@H](CO)C(=O)N[C@H](C(=O)N1CCC[C@H]1C(=O)N[C@H](C(=O)NCC(=O)N[C@@H](CO)C(=O)N[C@@H](CC(N)=O)C(=O)N[C@H](C(=O)N[C@@H](Cc1ccc(O)cc1)C(N)=O)[C@@H](C)O)C(C)C)[C@@H](C)O, also called compound 61) | 66.7 | 8.11
K([AEEA-γGlu-C20 diacid])CNTATCATQRLANFLRHSSPNFGAIPSSTNVGPHTY-NH2 (disulfide 2-7; N-terminus assumed; SMILES CC[C@H](C)[C@H](NC(=O)[C@H](C)NC(=O)CNC(=O)[C@H](Cc1ccccc1)NC(=O)[C@H](CC(N)=O)NC(=O)[C@@H]1CCCN1C(=O)[C@H](CO)NC(=O)[C@H](CO)NC(=O)[C@H](Cc1c[nH]cn1)NC(=O)[C@H](CCCNC(=N)N)NC(=O)[C@H](CC(C)C)NC(=O)[C@H](Cc1ccccc1)NC(=O)[C@H](CC(N)=O)NC(=O)[C@H](C)NC(=O)[C@H](CC(C)C)NC(=O)[C@H](CCCNC(=N)N)NC(=O)[C@H](CCC(N)=O)NC(=O)[C@@H](NC(=O)[C@H](C)NC(=O)[C@@H]1CSSC[C@H](NC(=O)[C@@H](N)CCCCNC(=O)COCCOCCNC(=O)CC[C@H](NC(=O)CCCCCCCCCCCCCCCCCCC(=O)O)C(=O)O)C(=O)N[C@@H](CC(N)=O)C(=O)N[C@@H]([C@@H](C)O)C(=O)N[C@@H](C)C(=O)N[C@@H]([C@@H](C)O)C(=O)N1)[C@@H](C)O)C(=O)N1CCC[C@H]1C(=O)N[C@@H](CO)C(=O)N[C@@H](CO)C(=O)N[C@H](C(=O)N[C@@H](CC(N)=O)C(=O)N[C@H](C(=O)NCC(=O)N1CCC[C@H]1C(=O)N[C@@H](Cc1c[nH]cn1)C(=O)N[C@H](C(=O)N[C@@H](Cc1ccc(O)cc1)C(N)=O)[C@@H](C)O)C(C)C)[C@@H](C)O, also called compound 58) | 109 | 9.63
K([AEEA-γGlu-C20 diacid])CNTATCATQRLAHFLRHSSPNFGAIPSSTNVGPNTY-NH2 (disulfide 2-7; N-terminus assumed; SMILES CC[C@H](C)[C@H](NC(=O)[C@H](C)NC(=O)CNC(=O)[C@H](Cc1ccccc1)NC(=O)[C@H](CC(N)=O)NC(=O)[C@@H]1CCCN1C(=O)[C@H](CO)NC(=O)[C@H](CO)NC(=O)[C@H](Cc1c[nH]cn1)NC(=O)[C@H](CCCNC(=N)N)NC(=O)[C@H](CC(C)C)NC(=O)[C@H](Cc1ccccc1)NC(=O)[C@H](Cc1c[nH]cn1)NC(=O)[C@H](C)NC(=O)[C@H](CC(C)C)NC(=O)[C@H](CCCNC(=N)N)NC(=O)[C@H](CCC(N)=O)NC(=O)[C@@H](NC(=O)[C@H](C)NC(=O)[C@@H]1CSSC[C@H](NC(=O)[C@@H](N)CCCCNC(=O)COCCOCCNC(=O)CC[C@H](NC(=O)CCCCCCCCCCCCCCCCCCC(=O)O)C(=O)O)C(=O)N[C@@H](CC(N)=O)C(=O)N[C@@H]([C@@H](C)O)C(=O)N[C@@H](C)C(=O)N[C@@H]([C@@H](C)O)C(=O)N1)[C@@H](C)O)C(=O)N1CCC[C@H]1C(=O)N[C@@H](CO)C(=O)N[C@@H](CO)C(=O)N[C@H](C(=O)N[C@@H](CC(N)=O)C(=O)N[C@H](C(=O)NCC(=O)N1CCC[C@H]1C(=O)N[C@@H](CC(N)=O)C(=O)N[C@H](C(=O)N[C@@H](Cc1ccc(O)cc1)C(N)=O)[C@@H](C)O)C(C)C)[C@@H](C)O, also called compound 68) | 64.4 | 5.66
